# Patent publication US20210332086A1 (published 2021)
# Target: MERS-CoV S-protein (on 293FT effector cells) (MERS-CoV, UniProt K9N5Q8)
# Assay: cell-based or functional assay
binder,measurement,value
SLTQINTTLLDLTYEMLSLQQVVKALNESYIDLKEL [Peptide 1 (WT)],"EC50 (µM), cell-cell fusion assay",1.05 µM
